According to patent US9988424 (DUKE UNIVERSITY, dated 2018):
Substitutions are numbered along the chain they refer to.

Legend:
B. 681-7 gp140C = assay: ELISA, OD405
B.040 gp140C [1] = assay: ELISA, OD405
B.63521 gp140C = assay: ELISA, OD405
G.con gp140CF = molecular target: T1, G.con gp140CF; assay: ELISA, OD405
T1 construct: also called G.con.env03 gp140CF

SIV CPZ US-1 gp140CF [2] = molecular target: T2, SIV CPZ US-1 gp140CF (SIVcpz); assay: ELISA, OD405
T2 construct: also called US-1 SIVCPZ gp140CF
T2 chain: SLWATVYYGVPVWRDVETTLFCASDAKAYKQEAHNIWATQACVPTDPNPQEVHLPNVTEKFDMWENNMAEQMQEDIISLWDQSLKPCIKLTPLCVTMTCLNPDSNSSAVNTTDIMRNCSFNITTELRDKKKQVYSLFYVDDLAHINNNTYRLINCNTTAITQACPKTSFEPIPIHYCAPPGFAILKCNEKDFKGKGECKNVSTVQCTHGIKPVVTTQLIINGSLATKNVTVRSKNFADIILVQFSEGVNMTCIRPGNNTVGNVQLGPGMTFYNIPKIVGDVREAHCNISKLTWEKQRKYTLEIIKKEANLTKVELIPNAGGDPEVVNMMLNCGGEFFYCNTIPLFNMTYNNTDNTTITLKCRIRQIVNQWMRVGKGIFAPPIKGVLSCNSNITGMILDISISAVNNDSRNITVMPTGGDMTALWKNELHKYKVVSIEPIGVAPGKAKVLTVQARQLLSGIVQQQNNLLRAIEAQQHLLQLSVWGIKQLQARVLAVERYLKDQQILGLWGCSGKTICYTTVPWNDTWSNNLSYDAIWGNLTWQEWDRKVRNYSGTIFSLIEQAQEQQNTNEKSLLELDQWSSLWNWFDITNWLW

MLV gp70 carrier protein = molecular target: T3, MLV gp70 carrier protein; assay: ELISA OD405nm, bar chart, antibody concentration not given
T3 construct: also called MuLV gp70
T3 carrier protein: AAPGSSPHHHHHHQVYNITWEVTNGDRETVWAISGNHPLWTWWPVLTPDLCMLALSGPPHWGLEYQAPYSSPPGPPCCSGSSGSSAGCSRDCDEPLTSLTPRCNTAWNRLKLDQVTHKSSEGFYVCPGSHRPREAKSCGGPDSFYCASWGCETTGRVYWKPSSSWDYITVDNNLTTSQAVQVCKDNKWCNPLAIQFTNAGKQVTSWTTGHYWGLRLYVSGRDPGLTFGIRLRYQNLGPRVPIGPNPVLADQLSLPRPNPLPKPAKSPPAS

G.con 140CF = molecular target: T4, G.con 140CF; assay: as above
T4 construct: also called G.con gp140CF; G.con.env03 gp140CF

D.9009SA V1V2 Tags = assay: as above
Con 6 120 = molecular target: T5, Con 6 120; assay: as above
T5 construct: also called Con 6 gp120

B.con env03 140CF = molecular target: T6, B.con env03 140CF; assay: as above
T6 construct: also called B.con gp140CF

B.CaseA V1/V2 Tags = assay: as above
B.63521_V1V2 Tags = assay: as above
AE.con env03 40CF = molecular target: T7, AE.con env03 40CF; assay: as above
T7 construct: also called AE.con gp140CF; AE.con.env03 gp140CF

A.9004SS V1V2 Tags = molecular target: T8, A.9004SS V1V2 Tags; assay: as above
T8 V1V2 tags construct: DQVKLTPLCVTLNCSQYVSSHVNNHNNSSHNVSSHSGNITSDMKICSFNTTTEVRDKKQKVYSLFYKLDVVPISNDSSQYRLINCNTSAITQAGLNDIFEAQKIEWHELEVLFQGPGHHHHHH

B.62357 140C = molecular target: T9, B.62357 140C; assay: as above
T9 construct: also called B.62357 gp140C

B.040 gp140C [3] = assay: as above
C.CAP206 gp140CF.12 = C.CAP206 gp140CF.12 (HIV-1); assay: as above
gp70 B.CaseA2 V1/V2 = molecular target: T10, gp70 B.CaseA2 V1/V2 (HIV-1 V1V2 on murine leukemia virus gp70); assay: as above
T10 construct: also called B.gp70CaseA2 V1/V2; gp70 B.CaseAV1V2
T10 chain: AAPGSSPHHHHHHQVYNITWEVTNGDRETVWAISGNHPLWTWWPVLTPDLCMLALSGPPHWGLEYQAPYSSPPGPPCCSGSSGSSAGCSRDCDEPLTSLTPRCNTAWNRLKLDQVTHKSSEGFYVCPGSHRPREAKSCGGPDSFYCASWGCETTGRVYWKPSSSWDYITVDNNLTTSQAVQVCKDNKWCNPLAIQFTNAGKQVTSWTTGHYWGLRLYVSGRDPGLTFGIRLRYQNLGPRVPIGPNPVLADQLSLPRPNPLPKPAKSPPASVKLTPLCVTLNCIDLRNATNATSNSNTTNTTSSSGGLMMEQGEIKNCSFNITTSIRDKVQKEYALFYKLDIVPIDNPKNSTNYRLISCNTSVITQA

A.Q23 V1V2 tags = A.Q23 V1V2 tags (HIV-1); assay: as above
AE.97CNG2XF gp140CF = molecular target: T11, AE.97CNG2XF gp140CF (HIV-1); assay: as above
T11 construct: also called E.97CNGX2F gp140CF

SIV CPZ US-1 gp140CF [4] = molecular target: T2, SIV CPZ US-1 gp140CF; assay: as above

Measured: binding result

B1: CH59 (antibody, V domains shown)
VH: EVQLVESGGGLVQPGRSLRLSCAASGFTFDDGAMHWVRQAPGKGLEWVSGISWNSNIIAYADSVKGRFTISRDNAKNSLYLEMNSLRVEDTALYYCAKDSPRGELPLNYWGQGTLVTVSS
VL: SYELTQPPSVSVSPGQTARITCSGDALPKNYAYWYQQKSGQAPVLVIYEDSKRPSGIPERFSGSSSGTMATLTISGAQVEDEADYYCYSTDSSGNHRVFGGGTKLTVL
notes: also called mAb CH59
no binding (tested: 10 ug/ml): B. 681-7 gp140C | B.040 gp140C [1] | B.63521 gp140C | G.con gp140CF | SIV CPZ US-1 gp140CF [2]

B2: CH59 reverted unmutated ancestor antibody (antibody, V domains shown)
VH: B1 VH with G32Y, N56G, I57S, A59G, E82Q, V88A, L107F, N108D
VL: B1 VL with N30K
notes: also called CH59 RUA; CH59_RUA
no binding (tested: not given): MLV gp70 carrier protein | G.con 140CF | D.9009SA V1V2 Tags | Con 6 120 | B.con env03 140CF | B.CaseA V1/V2 Tags | B.63521_V1V2 Tags | AE.con env03 40CF | A.9004SS V1V2 Tags | B.62357 140C | B.040 gp140C [3] | C.CAP206 gp140CF.12 | gp70 B.CaseA2 V1/V2 | A.Q23 V1V2 tags | AE.97CNG2XF gp140CF | SIV CPZ US-1 gp140CF [4]
